Results published in paper PMC4615246 (Nucleus, 2015).

Key:
Assay in all cases: LacI/LacO array recruitment in cells
LacI-CFP-Nup50 = target: T1, LacI-CFP-Nup50 (human, UniProt Q9UKX7 1-468)
T1 sequence: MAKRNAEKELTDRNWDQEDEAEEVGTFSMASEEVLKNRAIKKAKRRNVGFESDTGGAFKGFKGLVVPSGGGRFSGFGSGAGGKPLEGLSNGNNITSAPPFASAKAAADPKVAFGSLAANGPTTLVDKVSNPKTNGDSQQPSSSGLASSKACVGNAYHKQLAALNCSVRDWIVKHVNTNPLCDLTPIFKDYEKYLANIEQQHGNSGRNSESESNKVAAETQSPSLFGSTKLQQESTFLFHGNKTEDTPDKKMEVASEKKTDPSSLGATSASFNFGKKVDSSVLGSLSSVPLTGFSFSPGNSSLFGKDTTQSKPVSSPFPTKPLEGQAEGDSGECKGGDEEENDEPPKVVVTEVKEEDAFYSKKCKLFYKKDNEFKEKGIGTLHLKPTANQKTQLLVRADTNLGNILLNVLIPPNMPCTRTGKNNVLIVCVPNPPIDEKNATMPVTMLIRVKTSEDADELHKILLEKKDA

LacI-CFP-Nup107 = target: T2, LacI-CFP-Nup107 (human, UniProt P57740 1-925)
T2 sequence: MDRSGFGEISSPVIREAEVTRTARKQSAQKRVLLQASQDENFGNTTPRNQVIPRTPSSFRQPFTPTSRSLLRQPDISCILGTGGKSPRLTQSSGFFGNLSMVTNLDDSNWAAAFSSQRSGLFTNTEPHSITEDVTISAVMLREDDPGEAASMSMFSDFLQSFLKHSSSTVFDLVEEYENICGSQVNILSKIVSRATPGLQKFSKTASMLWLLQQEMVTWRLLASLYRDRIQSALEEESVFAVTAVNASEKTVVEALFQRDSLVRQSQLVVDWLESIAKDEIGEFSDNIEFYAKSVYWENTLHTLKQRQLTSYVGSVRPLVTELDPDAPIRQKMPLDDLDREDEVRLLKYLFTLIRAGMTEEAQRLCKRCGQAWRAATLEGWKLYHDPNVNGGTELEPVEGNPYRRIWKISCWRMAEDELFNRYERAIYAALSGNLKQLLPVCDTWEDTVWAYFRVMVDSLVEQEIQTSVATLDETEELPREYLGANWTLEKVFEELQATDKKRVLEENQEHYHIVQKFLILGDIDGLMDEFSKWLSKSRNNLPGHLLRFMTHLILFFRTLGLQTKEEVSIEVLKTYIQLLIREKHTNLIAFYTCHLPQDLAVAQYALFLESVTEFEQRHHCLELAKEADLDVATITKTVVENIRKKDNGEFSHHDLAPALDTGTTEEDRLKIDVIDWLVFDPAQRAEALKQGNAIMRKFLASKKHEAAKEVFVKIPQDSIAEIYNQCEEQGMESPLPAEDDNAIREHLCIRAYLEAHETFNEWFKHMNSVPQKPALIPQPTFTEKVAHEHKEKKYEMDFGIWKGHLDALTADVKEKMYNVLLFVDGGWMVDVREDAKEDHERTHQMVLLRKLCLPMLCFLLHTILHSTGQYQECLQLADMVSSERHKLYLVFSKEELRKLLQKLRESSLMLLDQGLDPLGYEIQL

LacI-CFP-Nup153 = target: T3, LacI-CFP-Nup153 (human, UniProt P49790 1-1475)
T3 sequence: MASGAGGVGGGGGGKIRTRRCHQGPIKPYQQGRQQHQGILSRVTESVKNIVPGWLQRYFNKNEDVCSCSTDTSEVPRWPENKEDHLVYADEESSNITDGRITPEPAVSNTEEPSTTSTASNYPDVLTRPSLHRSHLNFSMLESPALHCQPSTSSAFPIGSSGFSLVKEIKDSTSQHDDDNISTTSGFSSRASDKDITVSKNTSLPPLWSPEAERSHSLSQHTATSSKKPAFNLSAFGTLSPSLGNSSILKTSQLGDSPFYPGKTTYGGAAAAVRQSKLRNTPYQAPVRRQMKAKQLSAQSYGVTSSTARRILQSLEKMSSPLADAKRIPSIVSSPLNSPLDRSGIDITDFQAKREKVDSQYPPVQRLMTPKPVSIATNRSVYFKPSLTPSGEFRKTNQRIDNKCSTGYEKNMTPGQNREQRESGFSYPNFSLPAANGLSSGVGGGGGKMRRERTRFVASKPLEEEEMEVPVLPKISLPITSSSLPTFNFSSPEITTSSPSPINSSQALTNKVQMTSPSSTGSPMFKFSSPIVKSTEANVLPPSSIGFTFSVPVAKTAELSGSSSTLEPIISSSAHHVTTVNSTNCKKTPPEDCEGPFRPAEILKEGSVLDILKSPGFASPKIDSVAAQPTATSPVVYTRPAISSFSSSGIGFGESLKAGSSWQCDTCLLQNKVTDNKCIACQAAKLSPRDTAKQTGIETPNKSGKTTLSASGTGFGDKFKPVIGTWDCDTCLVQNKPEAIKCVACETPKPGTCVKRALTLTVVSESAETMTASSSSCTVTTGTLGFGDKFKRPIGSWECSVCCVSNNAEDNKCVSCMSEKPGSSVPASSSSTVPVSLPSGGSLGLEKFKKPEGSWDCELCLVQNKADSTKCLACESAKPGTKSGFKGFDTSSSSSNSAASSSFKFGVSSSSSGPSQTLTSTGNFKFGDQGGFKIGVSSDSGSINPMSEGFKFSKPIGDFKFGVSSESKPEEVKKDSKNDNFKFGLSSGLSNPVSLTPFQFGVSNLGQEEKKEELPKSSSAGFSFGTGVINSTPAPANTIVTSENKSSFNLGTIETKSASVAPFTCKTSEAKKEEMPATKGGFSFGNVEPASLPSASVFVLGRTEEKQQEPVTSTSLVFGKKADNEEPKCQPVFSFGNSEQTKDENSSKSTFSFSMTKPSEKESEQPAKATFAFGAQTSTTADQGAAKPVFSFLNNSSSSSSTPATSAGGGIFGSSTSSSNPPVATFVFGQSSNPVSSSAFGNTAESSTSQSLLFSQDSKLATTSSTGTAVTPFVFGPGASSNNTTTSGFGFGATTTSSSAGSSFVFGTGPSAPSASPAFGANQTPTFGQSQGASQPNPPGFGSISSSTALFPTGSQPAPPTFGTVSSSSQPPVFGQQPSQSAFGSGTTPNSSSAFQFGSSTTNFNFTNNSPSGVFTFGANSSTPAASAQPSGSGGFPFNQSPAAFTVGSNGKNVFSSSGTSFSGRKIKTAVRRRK

LacI-CFP-Nup214 = LacI-CFP-Nup214 (human, UniProt P35658 1-2090)
Chain of LacI-CFP-Nup214 (P35658 whole entry): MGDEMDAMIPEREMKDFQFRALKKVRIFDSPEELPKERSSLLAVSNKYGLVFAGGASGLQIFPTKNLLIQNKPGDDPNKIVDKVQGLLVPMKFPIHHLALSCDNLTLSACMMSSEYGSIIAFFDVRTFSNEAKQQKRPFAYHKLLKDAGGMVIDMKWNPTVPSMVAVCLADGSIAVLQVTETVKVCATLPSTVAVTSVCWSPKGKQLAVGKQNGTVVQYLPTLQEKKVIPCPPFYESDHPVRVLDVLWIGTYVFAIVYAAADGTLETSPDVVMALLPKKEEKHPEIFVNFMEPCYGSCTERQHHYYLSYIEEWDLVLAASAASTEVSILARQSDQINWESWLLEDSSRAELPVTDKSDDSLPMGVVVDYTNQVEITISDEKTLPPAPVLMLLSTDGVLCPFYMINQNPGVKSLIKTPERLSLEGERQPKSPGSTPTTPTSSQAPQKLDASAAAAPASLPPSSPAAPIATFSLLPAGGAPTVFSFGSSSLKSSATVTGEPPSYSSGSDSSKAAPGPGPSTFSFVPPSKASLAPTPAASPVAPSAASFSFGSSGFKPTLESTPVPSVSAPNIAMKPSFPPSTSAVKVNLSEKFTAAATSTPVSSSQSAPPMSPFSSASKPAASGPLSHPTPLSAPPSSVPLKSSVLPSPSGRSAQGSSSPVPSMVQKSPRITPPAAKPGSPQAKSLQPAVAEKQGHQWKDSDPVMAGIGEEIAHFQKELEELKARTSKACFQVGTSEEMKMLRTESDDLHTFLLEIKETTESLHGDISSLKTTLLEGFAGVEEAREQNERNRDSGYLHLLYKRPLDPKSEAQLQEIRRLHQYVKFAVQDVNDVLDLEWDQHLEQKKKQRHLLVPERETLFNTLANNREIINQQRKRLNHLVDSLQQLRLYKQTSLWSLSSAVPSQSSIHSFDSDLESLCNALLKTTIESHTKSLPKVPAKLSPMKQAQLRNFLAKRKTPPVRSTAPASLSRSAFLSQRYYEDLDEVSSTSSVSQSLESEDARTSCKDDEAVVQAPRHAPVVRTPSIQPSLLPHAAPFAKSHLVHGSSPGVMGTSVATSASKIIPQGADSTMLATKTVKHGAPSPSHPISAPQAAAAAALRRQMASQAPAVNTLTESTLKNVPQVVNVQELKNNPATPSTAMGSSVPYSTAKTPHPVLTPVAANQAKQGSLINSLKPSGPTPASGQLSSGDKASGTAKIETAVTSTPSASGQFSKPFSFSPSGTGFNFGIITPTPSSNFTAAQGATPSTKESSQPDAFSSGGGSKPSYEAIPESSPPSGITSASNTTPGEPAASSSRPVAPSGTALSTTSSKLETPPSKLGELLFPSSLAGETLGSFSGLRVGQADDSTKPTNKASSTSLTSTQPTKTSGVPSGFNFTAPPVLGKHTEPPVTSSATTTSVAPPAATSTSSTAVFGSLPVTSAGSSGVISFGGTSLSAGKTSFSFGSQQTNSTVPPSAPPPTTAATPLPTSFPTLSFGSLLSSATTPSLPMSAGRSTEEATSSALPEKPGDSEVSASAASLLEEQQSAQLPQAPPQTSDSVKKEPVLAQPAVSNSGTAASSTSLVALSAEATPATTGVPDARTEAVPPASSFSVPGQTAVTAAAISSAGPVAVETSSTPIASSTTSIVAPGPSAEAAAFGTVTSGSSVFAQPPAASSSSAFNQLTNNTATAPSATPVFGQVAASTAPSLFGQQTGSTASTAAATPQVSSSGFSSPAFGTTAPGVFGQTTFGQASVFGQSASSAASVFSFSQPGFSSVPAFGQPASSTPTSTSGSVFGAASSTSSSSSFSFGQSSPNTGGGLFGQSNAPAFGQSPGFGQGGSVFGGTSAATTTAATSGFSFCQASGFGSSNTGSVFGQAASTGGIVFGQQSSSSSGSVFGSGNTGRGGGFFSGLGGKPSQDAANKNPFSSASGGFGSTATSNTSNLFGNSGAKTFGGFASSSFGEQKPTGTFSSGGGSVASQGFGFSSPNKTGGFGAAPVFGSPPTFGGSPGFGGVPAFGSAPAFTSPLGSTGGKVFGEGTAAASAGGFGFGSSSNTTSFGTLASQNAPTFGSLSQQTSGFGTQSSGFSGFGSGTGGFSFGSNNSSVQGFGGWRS

B1: Nup133 (endogenous) (natural protein)
chain: MFPAAPSPRTPGTGSRRGPLAGLGPGSTPRTASRKGLPLGSAVSSPVLFSPVGRRSSLSSRGTPTRMFPHHSITESVNYDVKTFGSSLPVKVMEALTLAEVDDQLTINIDEGGWACLVCKEKLIIWKIALSPITKLSVCKELQLPPSDFHWSADLVALSYSSPSGEAHSTQAVAVMVATREGSIRYWPSLAGEDTYTEAFVDSGGDKTYSFLTAVQGGSFILSSSGSQLIRLIPESSGKIHQHILPQGQGMLSGIGRKVSSLFGILSPSSDLTLSSVLWDRERSSFYSLTSSNISKWELDDSSEKHAYSWDINRALKENITDAIWGSESNYEAIKEGVNIRYLDLKQNCDGLVILAAAWHSADNPCLIYYSLITIEDNGCQMSDAVTVEVTQYNPPFQSEDLILCQLTVPNFSNQTAYLYNESAVYVCSTGTGKFSLPQEKIVFNAQGDSVLGAGACGGVPIIFSRNSGLVSITSRENVSILAEDLEGSLASSVAGPNSESMIFETTTKNETIAQEDKIKLLKAAFLQYCRKDLGHAQMVVDELFSSHSDLDSDSELDRAVTQISVDLMDDYPASDPRWAESVPEEAPGFSNTSLIILHQLEDKMKAHSFLMDFIHQVGLFGRLGSFPVRGTPMATRLLLCEHAEKLSAAIVLKNHHSRLSDLVNTAILIALNKREYEIPSNLTPADVFFREVSQVDTICECLLEHEEQVLRDAPMDSIEWAEVVINVNNILKDMLQAASHYRQNRNSLYRREESLEKEPEYVPWTATSGPGGIRTVIIRQHEIVLKVAYPQADSNLRNIVTEQLVALIDCFLDGYVSQLKSVDKSSNRERYDNLEMEYLQKRSDLLSPLLSLGQYLWAASLAEKYCDFDILVQMCEQTDNQSRLQRYMTQFADQNFSDFLFRWYLEKGKRGKLLSQPISQHGQLANFLQAHEHLSWLHEINSQELEKAHATLLGLANMETRYFAKKKTLLGLSKLAALASDFSEDMLQEKIEEMAEQERFLLHQETLPEQLLAEKQLNLSAMPVLTAPQLIGLYICEENRRANEYDFKKALDLLEYIDEEEDININDLKLEILCKALQRDNWSSSDGKDDPIEVSKDSIFVKILQKLLKDGIQLSEYLPEVKDLLQADQLGSLKSNPYFEFVLKANYEYYVQGQI
For B1, the “percent of transfected cells showing colocalization” value (shortened to “percent”) (LacI-CFP-Nup50) was 11%, the “percent” value (LacI-CFP-Nup107) was 94% and the “percent” value (LacI-CFP-Nup153) was 35%. For the same binder, the “percent” value (LacI-CFP-Nup214) was 35%.
